Measurements: patent US20040092720A1 (US Dept. of Health and Human Services, published 2004)
Read-outs that look alike come from different tables or passages of the source.

Tests used:
recombinant human IL-6 [1] = molecular target: T1, recombinant human IL-6 (human, UniProt P05231 30-212, labeled with radioactive iodine); experiment: radioiodinated IL-6 on peptide array
T1 construct: Labeled probe in solution, added to wells that carry the synthetic peptides; also called IL-6 ligand; Interleukin-6
Procedure: Synthetic peptide arrays were constructed in 96-well microtiter plates in accordance with the method set forth in WO 91/02714 (Saxinger), and used to test the binding of recombinant human IL-6 that had been labeled with radioactive iodine (radiolabeling by standard methods). After incubating the radiolabeled IL-6 ligand in a well with each synthetic peptide, a washing step was performed to remove unbound label, and the relative level of radioactivity remaining in each well of the plate was evaluated to determine the relative affinity of each peptide for IL-6 ligand.

recombinant human IL-6 [2] = molecular target: T1, recombinant human IL-6; experiment: radioiodinated IL-6 on peptide array; remark: listed apart in the source

Binder | Counts/minute bound (recombinant human IL-6 [1]) | Counts/minute bound (recombinant human IL-6 [2])
PRSTPSLTTKAVLLVRKFQ [Peptide B3] | 7080 counts/minute | –
TTKAVLLVRKFQNS [Peptide B24] | 7010 counts/minute | –
AAGSHPSR [Peptide A14] | 1350 counts/minute | –
AGSHPSRWAGMGRRLLLRSV [Peptide A18] | 13400 counts/minute | –
AAGSHPSRW [Peptide A13] | 1520 counts/minute | –
TPSLTTKAVLLVRKFQNS [Peptide B20] | 12900 counts/minute | –
KEKCMDYFHVNANYIVWKTNHFTI [Peptide E6] | – | 1440 counts/minute
VRKFQNS (also called VRKFQNS) [Peptide B32] | 1180 counts/minute | –
AGMGRRLLLRSV [Peptide A26] | 7620 counts/minute | –
PRSTPSLTT [Peptide B13] | 1050 counts/minute | –
GMGRRLLLRSV [Peptide A27] | 6820 counts/minute | –
PRSTPSLTTKAVLLVR [Peptide B6] | 4360 counts/minute | –
GRRLLLRSV [Peptide A29] | 5370 counts/minute | –
RWAGMGRRLLLRSV [Peptide A24] | 12100 counts/minute | –
WAGMGRRLLLRSV [Peptide A25] | 12200 counts/minute | –
PRSTPSLTTKAV [Peptide B10] | 1220 counts/minute | –
MLTLQTWVVQALFIFLTTESTGEL [Peptide E1] | – | 3360 counts/minute
HSNFTAVCVLKEKCMDYFHVNANY [Peptide E5] | – | 1290 counts/minute
NANYIVWKTNHFTIPKEQYTIINR [Peptide E7] | – | 1330 counts/minute
SRWAGMGRRLLLRSV [Peptide A23] | 8270 counts/minute | –
AAGSHPSRWA [Peptide A12] | 1330 counts/minute | –
AVLLVRKFQNS [Peptide B28] | 9070 counts/minute | –
HPSRWAGMGRRLLLRSV [Peptide A21] | 12000 counts/minute | –

Binder | Counts/minute bound (recombinant human IL-6 [1]) | Counts/minute bound (recombinant human IL-6 [2])
LLLRSV (also called LLLRSV) [Peptide A32] | 1600 counts/minute | –
PRSTPSL (also called PRSTPSL) [Peptide B15] | 985 counts/minute | –
PRSTPSLTTKAVL [Peptide B9] | 1400 counts/minute | –
LLVRKFQNS [Peptide B30] | 7200 counts/minute | –
RRLLLRSV [Peptide A30] | 5970 counts/minute | –
LTTKAVLLVRKFQNS [Peptide B23] | 12200 counts/minute | –
ISPESPVVQLHSNFTAVCVLKEKC [Peptide E4] | – | 1500 counts/minute
SHPSRWAGMGRRLLLRSV [Peptide A20] | 12000 counts/minute | –
AAGSHP (also called AAGSHP) [Peptide A16] | 1570 counts/minute | –
PRSTPSLT [Peptide B14] | 930 counts/minute | –
GSHPSRWAGMGRRLLLRSV [Peptide A19] | 11000 counts/minute | –
PRSTPSLTTKAVLLVRKF [Peptide B4] | 4690 counts/minute | –
RSTPSLTTKAVLLVRKFQNS [Peptide B18] | 13000 counts/minute | –
AAGSHPSRWAGMGRRLLLRSA (alanine-scan variant of the domain I 21-mer) [Peptide A34] | 11800 counts/minute | –
AAGSHPSRWAGMARRLLLRSV (alanine-scan variant of the domain I 21-mer) [Peptide A42] | 12300 counts/minute | –
AAGSHPSRWAGMGRRLLARSV (alanine-scan variant of the domain I 21-mer) [Peptide A37] | 7730 counts/minute | –
AAGSHPARWAGMGRRLLLRSV (alanine-scan variant of the domain I 21-mer) [Peptide A47] | 11300 counts/minute | –
AAGSHPSRWAGMGRRLLLASV (alanine-scan variant of the domain I 21-mer) [Peptide A36] | 4900 counts/minute | –
AAGSHPSAWAGMGRRLLLRSV (alanine-scan variant of the domain I 21-mer) [Peptide A46] | 9520 counts/minute | –
AAGSHPSRWAGMGRRALLRSV (alanine-scan variant of the domain I 21-mer) [Peptide A39] | 5280 counts/minute | –
AAGSHPSRWAGMGRALLLRSV (alanine-scan variant of the domain I 21-mer) [Peptide A40] | 4250 counts/minute | –
AAGSHPSRWAGMGRRLLLRAV (alanine-scan variant of the domain I 21-mer) [Peptide A35] | 11200 counts/minute | –
AAGSHPSRWAGAGRRLLLRSV (alanine-scan variant of the domain I 21-mer) [Peptide A43] | 13500 counts/minute | –

Binder | Counts/minute bound (recombinant human IL-6 [1]) | Counts/minute bound (recombinant human IL-6 [2])
AAGSHPSRWAGMGRRLALRSV (alanine-scan variant of the domain I 21-mer) [Peptide A38] | 7080 counts/minute | –
AAGSHPSRAAGMGRRLLLRSV (alanine-scan variant of the domain I 21-mer) [Peptide A45] | 8040 counts/minute | –
AAGSHPSRWAAMGRRLLLRSV (alanine-scan variant of the domain I 21-mer) [Peptide A44] | 11900 counts/minute | –
AAGSHPSRWAGMGARLLLRSV (alanine-scan variant of the domain I 21-mer) [Peptide A41] | 4460 counts/minute | –
PRSTPSLTTKAVLLVRKFQN [Peptide B2] | 7930 counts/minute | –
PRSTPSLTTKA [Peptide B11] | 1240 counts/minute | –
PRSTPSLTTK [Peptide B12] | 1310 counts/minute | –
RLLLRSV (also called RLLLRSV) [Peptide A31] | 5460 counts/minute | –
VLLVRKFQNS [Peptide B29] | 9100 counts/minute | –
STPSLTTKAVLLVRKFQNS [Peptide B19] | 12200 counts/minute | –
MGRRLLLRSV [Peptide A28] | 7140 counts/minute | –
PRSTPSLTTKAVLLV [Peptide B7] | 3400 counts/minute | –
ALFIFLTTESTGELLDPCGYISPE [Peptide E2] | – | 1530 counts/minute
TGELLDPCGYISPESPVVQLHSNF [Peptide E3] | – | 1300 counts/minute
PRSTPSLTTKAVLLVRK [Peptide B5] | 3960 counts/minute | –
PRSTPS (also called PRSTPS) [Peptide B16] | 1020 counts/minute | –
AAGSHPS (also called AAGSHPS) [Peptide A15] | 1320 counts/minute | –
LVRKFQNS [Peptide B31] | 2520 counts/minute | –
KAVLLVRKFQNS [Peptide B27] | 5600 counts/minute | –
PSLTTKAVLLVRKFQNS [Peptide B21] | 13300 counts/minute | –
PSRWAGMGRRLLLRSV [Peptide A22] | 11100 counts/minute | –
